Experimental data as given in patent US20250215081A1.

What follows are molecules tested against human Fc gamma receptor 1A (human) (UniProt P12314) (assay: SPR (Biacore T200), antibody amine-coupled on CM5 (~950 RU), FcγR1A as analyte).
UniProt P12314, sequence (P12314 16-288 limits assumed): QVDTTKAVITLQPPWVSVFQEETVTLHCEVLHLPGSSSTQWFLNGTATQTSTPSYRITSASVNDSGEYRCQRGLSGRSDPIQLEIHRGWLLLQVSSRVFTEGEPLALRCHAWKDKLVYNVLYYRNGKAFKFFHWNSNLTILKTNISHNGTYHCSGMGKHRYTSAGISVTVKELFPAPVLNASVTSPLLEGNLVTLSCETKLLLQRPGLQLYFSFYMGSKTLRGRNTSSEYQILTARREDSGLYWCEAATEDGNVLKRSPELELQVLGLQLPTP

Maximum response at 100 nM hFcgammaRIA (RU)	Molecule
9	Anti-CD3 LALASKPA-IgG1 (L234A/L235A/S267K/P329A) (antibody)
18	Anti-CD3 LALAPG-IgG1 (L234A/L235A/P329G) (antibody)
16	Anti-CD3 GADAPA-IgG1 (G237A/D265A/P329A) (antibody)
11	Anti-CD3 DANAPA-IgG1 (D265A/N297A/P329A) (antibody)
13	Anti-CD3 DAPASK-IgG1 (D265A/P329A/S267K) (antibody)
15	Anti-CD3 LALAGA-IgG1 (L234A/L235A/G237A) (antibody)
10	Anti-CD3 GADAPASK-IgG1 (G237A/D265A/P329A/S267K) (antibody)

The molecules below were run against CD3-Fc (assay: SPR (Biacore T200, 25 C), CD3-Fc captured on anti-hFc CM5 chip, antibody as analyte, 1:1 model).

Kd [nM]	Molecule
16	anti-CD3 antibody CD3hi (mAb) (antibody, V domains shown) VH: EVQLVESGGGLVQPGGSLKLSCAASGFTFNTYAMNWVRQASGKGLEWVGRIRSKYNNYATYYADSVKDRFTISRDDSKSTLYLQMNSLKTEDTAVYYCVRHGNFGNSYVSWFAYWGQGTLVTVSS VL: QAVVTQEPSLTVSPGGTVTLTCRSSTGAVTTSNYANWVQQKPGQAPRGLIGGTNKRAPWTPARFSGSLLGDKAALTLSGAQPEDEAEYFCALWYSNLWVFGGGTKLTVL
48	anti-CD3 antibody CD3lo (mAb) (antibody, V domains shown) VH: EVQLVESGGGLVQPGGSLKLSCAASGFTFNTYAMNWVRQASGKGLEWVGRIRSKYNNYATYYADSVKDRFTISRDDSKSTAYLQMNSLKTEDTAVYYCVRHGNFGNSYVSWFAYWGQGTLVTVSS VL: QAVVTQEPSLTVSPGGTVTLTCRSSTGAVTTSNYANWVQQKPGQAPRGLIGGTNKRAPWTPARFSGSLLGDKAALTLSGAQPEDEAEYFCALWYSNLWVFGGGTKLTVL
30	anti-CD3 antibody CD3med (mAb) (antibody, V domains shown) VH: EVQLVESGGGLVQPGGSLKLSCAASGFTFNTYAMNWVRQASGKGLEWVGRIRSKYNNYATYYADSVKDRFTISRDDSKNTAYLQMNSLKTEDTAVYYCVRHGNFGNSYVSWFAHWGQGTLVTVSS VL: QAVVTQEPSLTVSPGGTVTLTCGSSTGAVTSSNYANWVQQKPGQAPRGLIGGTNKRAPWTPARFSGSLLGGKAALTLSGAQPEDEAEYYCALWYSNLWVFGGGTKLTVL
